This data set in a line: protein stability index of a GFP-peptide fusion (GPS, HEK-293T) (PSI 1-6); higher = more stable. The settings on record: c terminus: a fixed tail appended.

In the supplement of paper PMC10567573 one finds protein stability index data, which are given here for 72 sequences.

± gives the standard deviation.
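Further: 24-mer peptide tiles fused after GFP, lentivirally expressed, FACS-sorted into six equal bins by GFP/DsRed ratio, decoded by Illumina sequencing, PSI is the read-weighted mean bin number.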

In the case of KDILGFAVMFFIVFFAYAQLGYLL [PKD2L1], the protein stability index reads like this: (treatment: DMSO) 2.81 ± 0.42; (treatment: MLN4924 1 uM, 8 h) 2.93 ± 0.54.
As for PTVPSAATSQPTPSQHSAHTSSQP [CCDC6], the protein stability index by setting is: (treatment: DMSO) 5.21 ± 0.13; (treatment: MLN4924 1 uM, 8 h) 5.22 ± 0.27.
On the same counts, the results for VDYTGQAKAQVRKAVQYEEKNPCR [STX11] are 4.37 ± 0.17 and 4.59 ± 0.18.
Taken in the same sequence, the figures for ENYLEYRQVPGSDPACYEFLWGPR [MAGEA3] were 3.12 ± 0.34 and 3.17 ± 0.36.
PEASDQEEHLSPLDFLHSANFSLG [RNF180] came in with a protein stability index (treatment: DMSO) of 4.66 ± 0.17 and a protein stability index (treatment: MLN4924 1 uM, 8 h) of 4.64 ± 0.36.
On the same counts, the results for KGHNTPKDIAHFWELGGGTSLLDL [DYNC2LI1] are 3.02 ± 0.28 and 3.2 ± 0.11.
On the same counts, the results for DTLGLGKTRRKTSARDASPTPSTD [NCK2] are 5.36 ± 0.25 and 5.15 ± 0.34.
Taken in the same sequence, the figures for SRGACTSHDPQSSRGSRRRRRQRS [KCNA4] were 5.39 ± 0.4 and 5.53 ± 0.32.
In turn, LLETANQTLQAMDSEDFPQAAKQI [FSD1] gave a protein stability index (treatment: DMSO) of 4.92 ± 0.26 and a protein stability index (treatment: MLN4924 1 uM, 8 h) of 4.79 ± 0.17.
On the same counts, the results for FLDLVKPEPVYKLTQRQVNITVQK [HACD3] are 2.56 ± 0.14 and 2.79 ± 0.44.
Taken in the same sequence, the figures for ASLSNQECQLYPRRSQQQQVPVVD [SNURF] were 4.57 ± 0.14 and 4.46 ± 0.24.
Taken in the same sequence, the figures for YGHCTAGGEGVEVELLHNTSYTRQ [SCNN1D] were 3.71 ± 0.22 and 3.8 ± 0.25.
Consider PYIPPHAALCLEVTLKTAVDGPDL [FKBP8], for which the protein stability index (treatment: DMSO) was determined as 2.32 ± 0.41 and the protein stability index (treatment: MLN4924 1 uM, 8 h) is 2.23 ± 0.2.
In the case of TGILLHPWLRQDPMPLAPTRSHLW [TRIB3], the protein stability index by setting is: (treatment: DMSO) 2.11 ± 0.25; (treatment: MLN4924 1 uM, 8 h) 2.18 ± 0.089.
Consider IREQIKKYRRHFLRFCHNNKKAKR [EIF5], for which the protein stability index came to 2.35 ± 0.19 (treatment: DMSO) and 2.33 ± 0.16 (treatment: MLN4924 1 uM, 8 h).
Taken in the same sequence, the figures for ESYESMELACPAERSGHVAVSDGR [KLHDC2] were 5.08 ± 0.069 and 5.09 ± 0.17.
Taken in the same sequence, the figures for SPNPFPEISRGEYLYTYDSQITDS [ZNF8] were 4.08 ± 0.17 and 4.35 ± 0.38.
Taken in the same sequence, the figures for WVLLFTPCSFVCWYRPMYKAFRSD [SCAMP3] were 2.92 ± 0.31 and 3 ± 0.37.
As to SLHVDDRERMELLEEAKKMEMAKF [RIPK4], the protein stability index is, setting by setting: (treatment: DMSO) 4.92 ± 0.42; (treatment: MLN4924 1 uM, 8 h) 4.76 ± 0.15.
On the same counts, the results for QQRPHPRSHSREPRAERKCPRIAP [ELOA2] are 4.49 ± 0.46 and 4.53 ± 0.071.
Taken in the same sequence, the figures for QAKTHTDSSEKELEPEAAEEALEN [ACBD3] were 5.52 ± 0.2 and 5.65 ± 0.24.
Taken in the same sequence, the figures for NTPFQLSIAPPEAEGVVLSDSPDA [PPTC7] were 5.41 ± 0.15 and 5.37 ± 0.18.
Turning to AEPAMPGRLYVHPDSPATGAHWMR [TBX5], the protein stability index runs as follows: (treatment: DMSO) 3.5 ± 0.36; (treatment: MLN4924 1 uM, 8 h) 3.44 ± 0.21.
On the same counts, the results for IHDLDLTLLNPRMIVDVTPYMNPS [CLCN6] are 2.29 ± 0.19 and 2.26 ± 0.25.
On the same counts, the results for AAVPGTQLSPSPTPASQSPKKPPA [SNAP91] are 5.44 ± 0.25 and 5.37 ± 0.33.
As for AGSKVKDMAGDWHWALRVTPGLGV [SPNS1], the protein stability index is, setting by setting: (treatment: DMSO) 2.07 ± 0.28; (treatment: MLN4924 1 uM, 8 h) 2.1 ± 0.26.
On the same counts, the results for LTCDALTELLAKITNTDVDCLKAC [CCND2] are 2.37 ± 0.28 and 2.34 ± 0.27.
Taken in the same sequence, the figures for LPLSPGVLSSTPDHSFSLELGSEV [ATF4] were 3.72 ± 0.21 and 3.95 ± 0.5.
For the sequence GFTPLHMAVDKDTTNVGRYPVGRF [FEM1A], the protein stability index is 3.43 ± 0.089 (treatment: DMSO) and 3.6 ± 0.36 (treatment: MLN4924 1 uM, 8 h).
For the sequence VLRFLPAFVRMKQLIEEGYVGEPL [GFOD1], the protein stability index came to 2.2 ± 0.25 (treatment: DMSO) and 2.17 ± 0.13 (treatment: MLN4924 1 uM, 8 h).
Taken in the same sequence, the figures for LSSVPSEAQISDPFAPEPTPPTTT [SNAP91] were 5.38 ± 0.079 and 5.3 ± 0.2.
Taken in the same sequence, the figures for IIKQLQKGVQQKRPSEAQSVILRR [DENND6A] were 3.08 ± 0.2 and 2.9 ± 0.14.
On the same counts, the results for LSDLEDLEEEEEEEEEAEDEEVVA [IRX6] are 5.63 ± 0.23 and 5.81 ± 0.077.
On to EREASPSNSCQDSTDTESNNEEQR [IKZF1], for which the protein stability index reads like this: (treatment: DMSO) 5.24 ± 0.45; (treatment: MLN4924 1 uM, 8 h) 5.61 ± 0.22.
Taken in the same sequence, the figures for EINSHSLFSKWFSESGKLVTKMFQ [TRIP13] were 2.58 ± 0.21 and 2.48 ± 0.42.
On the same counts, the results for QDDISSSYTTTTTITAPPSRVLQN [SCD] are 4.71 ± 0.3 and 4.89 ± 0.3.
Taken in the same sequence, the figures for FEMKKGQCKDALEIYKRFLTRMTR [SNAP91] were 2.46 ± 0.7 and 2.56 ± 0.43.
In the case of STDIGALMYPSYTFSGDVQLAQDD [MMP1], the protein stability index was found to be 4.9 ± 0.13 (treatment: DMSO) and 4.74 ± 0.28 (treatment: MLN4924 1 uM, 8 h).
On the same counts, the results for IKEVIFMSDKYHDSDEATAARLLF [DCTD] are 2.57 ± 0.27 and 2.62 ± 0.32.
In the case of QSEHTMVLRCQLSAEEVRFPVSVT [C2CD2L], the protein stability index reads like this: (treatment: DMSO) 2.64 ± 0.33; (treatment: MLN4924 1 uM, 8 h) 2.49 ± 0.42.
Taken in the same sequence, the figures for AEFMRNFQKGQVTRDGFKLVMASL [HMOX1] were 2.33 ± 0.75 and 2.26 ± 0.16.
In the case of IVCAQSSQSLWNRLSVLLNLLPAA [SMG5], the protein stability index is, setting by setting: (treatment: DMSO) 2.8 ± 0.31; (treatment: MLN4924 1 uM, 8 h) 2.99 ± 0.28.
On the same counts, the results for GPLPQSFDKEWVAKQTKRMLDMKV [COX4I1] are 3.86 ± 0.15 and 3.86 ± 0.31.
For THFASQEFFSANAISDQLLGAGSD [ADAMTSL2], the protein stability index is, setting by setting: (treatment: DMSO) 4.27 ± 0.23; (treatment: MLN4924 1 uM, 8 h) 4.23 ± 0.25.
On the same counts, the results for SEGFESDSSHDSARASEGSDSGSD [SMG5] are 5.51 ± 0.3 and 5.7 ± 0.1.
On the same counts, the results for ILKLEQENCTLVTTFRGHTGGVTA [WDFY2] are 2.79 ± 0.13 and 3.51 ± 0.5.
On the same counts, the results for LNPHVHLVGDDAACIAYIRLTQYM [CAMK2D] are 2.32 ± 0.38 and 2.29 ± 0.66.
Take MALTPVVVTLWYRAPEVLLQSTYA [CDK4]: the protein stability index was found to be 3.04 ± 0.41 (treatment: DMSO) and 3.06 ± 0.45 (treatment: MLN4924 1 uM, 8 h).
With LGHMFMYFLRGSLPWQGLKADTLK [CSNK1G3], the protein stability index (treatment: DMSO) is 2.06 ± 0.26 and the protein stability index (treatment: MLN4924 1 uM, 8 h) is 2.57 ± 0.98.
Taken in the same sequence, the figures for SVRILGSLVAILLVFLITAILVKV [SLC29A1] were 2.9 ± 0.44 and 2.85 ± 0.66.
On the same counts, the results for FSQEIGLASLGASEEAVQKLATCY [TPH1] are 3.12 ± 0.18 and 3.34 ± 0.3.
On the same counts, the results for PTELWPQEAVPLGLGLEDADWTQG [TEX19] are 4.56 ± 0.22 and 4.59 ± 0.22.
Regarding KSISPWKSPPQLRQFLPEEFMKTL [DENND6A], the protein stability index by setting is: (treatment: DMSO) 2.47 ± 0.088; (treatment: MLN4924 1 uM, 8 h) 2.61 ± 0.3.
Taken in the same sequence, the figures for ATTAATAAATTTTTTSAATATTAP [SNAP91] were 5.36 ± 0.22 and 5.52 ± 0.22.
Taken in the same sequence, the figures for VSVRVQPRGRAHLLPNPYQQDFLG [C22orf15] were 2.2 ± 0.18 and 2.13 ± 0.35.
Taken in the same sequence, the figures for ERTRKPYNNDIDYYAKRNALRAAE [GALNT9] were 4.1 ± 0.13 and 4.26 ± 0.24.
For LMKGGADLFVENMPGFPDNIRPSS [APMAP], the protein stability index runs as follows: (treatment: DMSO) 3.66 ± 0.1; (treatment: MLN4924 1 uM, 8 h) 3.77 ± 0.33.
In the case of FGDLSLSLVTVGKHLTARVLCLIV [POMT2], the protein stability index (treatment: DMSO) is 3.39 ± 0.76 and the protein stability index (treatment: MLN4924 1 uM, 8 h) stood at 2.71 ± 0.48.
On the same counts, the results for KDREYTDIIRKQVLGTKVDAERDG [CDC34] are 5.08 ± 0.21 and 4.99 ± 0.18.
On the same counts, the results for SNMKSRYTTEFHELEKIGSGEFGS [WEE1] are 3.9 ± 0.31 and 4.04 ± 0.19.
In turn, WNITKLSIEYDSEPFGKERDAAIK [CRY1] showed a protein stability index (treatment: DMSO) of 2.9 ± 0.29 and a protein stability index (treatment: MLN4924 1 uM, 8 h) of 2.9 ± 0.28.
In turn, YNPPKDDGSTYKIELEGISVMVMR [GAN] gave a protein stability index (treatment: DMSO) of 2.14 ± 0.28 and a protein stability index (treatment: MLN4924 1 uM, 8 h) of 2.24 ± 0.22.
On the same counts, the results for DRLTTFQENQARTHVLSKEVQHLR [LRRC45] are 4.12 ± 0.13 and 4.29 ± 0.16.
Taken in the same sequence, the figures for ILAIIAKEGDCAPEEKIWEELSVL [MAGEA6] were 2.44 ± 0.26 and 2.48 ± 0.43.
In the case of ETEEMLGKKQEYLENRIQREIALA [CHMP4C], the protein stability index is, setting by setting: (treatment: DMSO) 4.44 ± 0.14; (treatment: MLN4924 1 uM, 8 h) 4.58 ± 0.29.
Taken in the same sequence, the figures for DSFPEGPERLHAIKEQLIQEGLLD [HDAC6] were 4.94 ± 0.49 and 4.76 ± 0.27.
On the same counts, the results for YVRDRADLNKDKPVIPAAALAGYT [ETS1] are 2.44 ± 0.6 and 3.35 ± 0.78.
On the same counts, the results for CHDKYTKIFNDFKDRMKSDHKRET [ZMYND11] are 4.08 ± 0.28 and 3.9 ± 0.28.
Regarding SSEAFHNYMNAAMVHINRALKLII [RTN3], the protein stability index was found to be 2.62 ± 0.46 (treatment: DMSO) and 2.06 ± 0.38 (treatment: MLN4924 1 uM, 8 h).
As to HPNSRKSSAGGAKAGQPESRALAL [ZNF8], the protein stability index is, setting by setting: (treatment: DMSO) 4.67 ± 0.36; (treatment: MLN4924 1 uM, 8 h) 4.77 ± 0.16.
In the case of ISLVKREHDFLDRDAIEALCRRLN [DLC1], the protein stability index (treatment: DMSO) is 2.69 ± 0.18 and the protein stability index (treatment: MLN4924 1 uM, 8 h) came out at 2.8 ± 0.42.
On the same counts, the results for ALCVVDTIKRSSQTGEWQNIAIMT [GFOD1] are 2.31 ± 0.24 and 2.2 ± 0.14.
